Key:
[1] = target: H2B:mRFP (UniProt P06899); experiment: FRET or BRET; FLIM-FRET in cells in interphase; GFP fusion as donor, mRFP or dsRed fusion as acceptor; multiphoton excitation at 890 nm; at least 20 cells per condition
[2] = target: Importin β (endogenous, DT40); experiment: TrAP-tag pull-down and mass spectrometry; details: DT40 cells blocked in mitosis with colcemid, then forced to exit from mitosis by addition of roscovitine; parent: 15
[3] = target: NUP153 (endogenous, DT40); experiment: TrAP-tag pull-down and mass spectrometry; details: DT40 cells blocked in mitosis with colcemid, then forced to exit from mitosis by addition of roscovitine; parent: 8
[4] = target: NUP50 (endogenous, DT40); experiment: TrAP-tag pull-down and mass spectrometry; details: DT40 cells blocked in mitosis with colcemid, then forced to exit from mitosis by addition of roscovitine; parent: 17
[5] = target: PP1; experiment: TrAP-tag pull-down and mass spectrometry; details: DT40 cells blocked in mitosis with colcemid, then forced to exit from mitosis by addition of roscovitine; parent: 18
[6] = target: histone H2B; experiment: TrAP-tag pull-down and mass spectrometry; details: DT40 cells blocked in mitosis with colcemid, then forced to exit from mitosis by addition of roscovitine; parent: 12
[7] = target: histone H3; experiment: TrAP-tag pull-down and mass spectrometry; details: DT40 cells blocked in mitosis with colcemid, then forced to exit from mitosis by addition of roscovitine; parent: 17

Substance	E FRET [1] [%]	other: number of peptides identified by mass spectrometry [2]	other: number of peptides identified by mass spectrometry [3]	other: number of peptides identified by mass spectrometry [4]	other: number of peptides identified by mass spectrometry [5]	other: number of peptides identified by mass spectrometry [6]	other: number of peptides identified by mass spectrometry [7]
GFP:Repo-Man (from UniProt Q69YH5 1-1023) (natural protein)	22						
TrAP:hRepo-Man^WT (from UniProt Q69YH5) RVTF>RAXA (V>A; F>A in the RVTF motif, residue numbers not printed)		35	34	17	-0	14	12
